We go through four sequences from patent US20160091489.

Read-outs that look alike come from different tables or passages of the source.

The subject of series [1] is Ramos cell surface (protein target not named in document) (Homo sapiens). The settings on record: 3' biotin, Ramos cell capture efficiency in microfluidic device.
The test system of series [2] is CEM cell surface receptor bound by sgc8 (protein not named in document) (Homo sapiens). In words: flow. As to conditions: whole CEM cells.

With “AACACCGTGGAGGATAGTTCGGTGGCTGTTCAGGGTCTCCTCCCGGTGTTTTTTTTTT [TD05]”, the activity in series [1] (3' T10 linker, aptamer alone) amounted to 41 % capture.

For the sequence “ATCTAACTGCTGCGCCGCCGGGAAAATACTGTACGGTTAGATTTTTTTTTT [sgc8]”, in series [2] (3' T10 linker as printed in Table 1, 3' biotin for capture, FITC instead of biotin for flow), the Kd (usually a measure of binding affinity in units of concentration) was found to be 3.9 nM.

The sequence “AACACCGTGGAGGATAGTTCGGTGGCTGTTCAGGGTCTCCTCCCGGTG [AuNP-TD05]” had an activity in series [1] (5' thiol-(PEG)24 on gold nanoparticle) of 90 % capture.

Take “ATCTAACTGCTGCGCCGCCGGGAAAATACTGTACGGTTAGA [AuNP-sgc8]”: the Kd in series [2] (5' thiol-(PEG)24 on 13.6 nm gold nanoparticle, about 95 aptamers per particle, 3' biotin or FITC, multivalent gold nanoparticle conjugate) was 0.1 nM.
